Here are results for six molecules from article PMC8096230.

To fix the notation:
B1: GRE2 mut (dsDNA)
DNA 1: AGGCTGGGTATACAGAATGCCCTGCC
DNA 2: GGCAGGGCACTCTGTGTACCCAGCCT
B2: GRE1 mut (dsDNA)
DNA 1: TGAGTCAGGATTGAGTATTCTCACGG
DNA 2: CCGTGAGAACACTCAGTCCTGACTCA
B3: NSP (non-specific probe) (dsDNA)
DNA 1: TGGGCTGAGGCTGGGTGTGGCCCGAC
DNA 2: GTCGGGCCACACCCAGCCTCAGCCCA
B4: GRE (Gilz) / GREgilz (dsDNA)
DNA 1: TGAGTCAGAACATTGGGTTCCCACGG
DNA 2: CCGTGGGAACCCAATGTTCTGACTCA
B5: GRE2 (Eif4ebp2 GBSe2) (dsDNA)
DNA 1: AGGCTGGGTACACAGAGTGCCCTGCC
DNA 2: GGCAGGGCACTCTGTGTACCCAGCCT
B6: GRE1 (Eif4ebp2 GBSe1) (dsDNA)
DNA 1: TGAGTCAGGACTGAGTGTTCTCACGG
DNA 2: CCGTGAGAACACTCAGTCCTGACTCA

T1 sequence (P04150 412-506): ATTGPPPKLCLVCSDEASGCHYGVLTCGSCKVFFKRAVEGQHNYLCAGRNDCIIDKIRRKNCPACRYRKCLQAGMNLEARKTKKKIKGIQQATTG

One series has as its target T1, GR DBD (human, UniProt P04150 412-506). The series is described as follows: EMSA.
In the case of B1, the binding result is “no binding”.
Consider B2, for which the binding result was “no binding”.
Consider B3, for which the binding result is “no binding”.

The target in a further series is T1, GR DBD. Nature of the series: MST.
As to B4, binding was put at a Kd of 0.154 µM.
Still for that read-out and setting: in the case of B5 it was 0.204 µM.
The same measure, in the same setting: in the case of B6 it was 0.195 µM.

A word on the Kd: it is a measure of binding affinity in units of concentration. Read a low Kd as higher affinity.
